Laboratory results published in patent publication US20240400689A1 (ANTENGENE BIOLOGICS, published 2024).
Numbering of substitutions follows the chain as printed. Like-named read-outs stand apart in the source and are kept apart here.

T1: human CD276 protein (human, UniProt Q5ZPR3 29-534)
T1 construct: whole, on cells; for SKOV3 and the other cancer lines the protein is the cells' own; also called B7-H3; B7H3
T1 sequence (looked up): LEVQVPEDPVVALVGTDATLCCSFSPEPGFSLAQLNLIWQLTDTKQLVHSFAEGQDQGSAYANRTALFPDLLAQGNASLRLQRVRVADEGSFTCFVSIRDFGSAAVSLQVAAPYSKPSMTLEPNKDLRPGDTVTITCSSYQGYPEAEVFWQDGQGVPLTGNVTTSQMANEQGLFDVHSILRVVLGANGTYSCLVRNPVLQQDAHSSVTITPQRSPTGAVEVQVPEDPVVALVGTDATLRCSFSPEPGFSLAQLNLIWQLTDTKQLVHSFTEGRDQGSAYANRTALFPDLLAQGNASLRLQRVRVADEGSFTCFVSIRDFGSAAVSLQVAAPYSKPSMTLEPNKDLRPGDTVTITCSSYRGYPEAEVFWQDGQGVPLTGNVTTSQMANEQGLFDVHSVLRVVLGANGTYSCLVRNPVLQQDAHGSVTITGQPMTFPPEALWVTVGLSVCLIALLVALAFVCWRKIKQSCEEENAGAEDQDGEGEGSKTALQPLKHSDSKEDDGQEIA

T2: HUMAN B7H3 (Biacore analyte) (human, UniProt Q5ZPR3 29-461, limits assumed)
T2 construct: also called hB7H3
T2 sequence (looked up): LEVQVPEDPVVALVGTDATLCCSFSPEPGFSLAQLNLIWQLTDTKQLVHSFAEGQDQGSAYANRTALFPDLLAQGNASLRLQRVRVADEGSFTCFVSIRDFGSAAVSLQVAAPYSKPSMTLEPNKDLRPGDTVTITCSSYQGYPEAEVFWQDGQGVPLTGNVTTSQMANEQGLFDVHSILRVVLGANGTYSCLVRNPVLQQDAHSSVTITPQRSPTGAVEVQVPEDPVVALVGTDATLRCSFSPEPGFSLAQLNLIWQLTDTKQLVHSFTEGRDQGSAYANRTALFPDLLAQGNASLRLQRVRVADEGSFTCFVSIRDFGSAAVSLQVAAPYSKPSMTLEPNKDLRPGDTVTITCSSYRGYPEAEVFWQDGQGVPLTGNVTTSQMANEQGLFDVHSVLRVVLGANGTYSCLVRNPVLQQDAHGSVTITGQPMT

B1: 13-E4-G9-A4 (human IgG1 chimeric antibody) (antibody, V domains shown)
VH: EVMLVESGGGLVKPGGSLKFSCAASGFTFITYAMSWVRQTPEKRLEWVATISGGGIDTYYPDSVKGRFTISRDNAKNTLYLQVNSLRSEDTAMYYCTRQGSQGWGAMDYWGQGTSVTVSS
VL: QIVLTQSPPIMSASPGERVTMTCRASSRVSFMHWYQQKSGTSPRRWIYETSKLASGVPDRFSGSVSGTSYSLTISSMEAEDAATYYCQQWSSNPLTFGAGTKLELK
notes: human IgG1 chimeric antibody of the mouse clone
B2: MGC018 (antibody, V domains shown)
VH: EVQLVESGGGLVKPGGSLRLSCAASGFTFSSYGMSWVRQAPGKGLEWVATINSGGSNTYYPDSLKGRFTISRDNAKNSLYLQMNSLRAEDTAVYYCARHDGGAMDYWGQGTTVTVSS
VL: DIQMTQSPSSLSASVGDRVTITCRASESIYSYLAWYQQKPGKAPKLLVYNTKTLPEGVPSRFSGSGSGTDFTLTISSLQPEDFATYYCQHHYGTPPWTFGQGTRLEIKR
B3: 16-G3-D10-C10 (human IgG1 chimeric antibody) (antibody, V domains shown)
VH: QIQLVQSGPELKKPGETVKISCKASGYTFRNYGMNWVKQGPGKDLKWMGWINPYTGEPTYIGDFKGRFAFSLETSANSAYLQINNLNNEDMATYFCARDDGYWYTMDYWGQGTSVTVSS
VL: DVVMTQTPPSLPVSLGDQASIPCRSSQSLVHSNGITYLHWYLQKPGQSPKLLIYKVSNRFSGVPDRFSGSGSGTDFTLKISRVEAEDLGVYFCSQSTHVPWTFGGGTKLEIK
notes: as for B1
B4: 22-E11-C3-F2 (human IgG1 chimeric antibody) (antibody, V domains shown)
VH: QIQLVQSGPELKRPGETVKISCKASGYSFTNYGMNWVKQAPGKGLKWMGWINPYTGEPTYADDFKGRFAMSLETSASAAYLQINNLKNEDMATYFCGRDDGYHYTMNYWGQGTSVTVSS
VL: B3 VL with T7P, P9L, P22S, V30I, I35D, N58I, H98Y
notes: as for B1
B5: 20-A2-D10-G8 (human IgG1 chimeric antibody) (antibody, V domains shown)
VH: QVQLQQSGPELVRPGVSVKISCKGSGYTFTDYTMHWVKESHAQSLEWIGVISTYYGNTNYNQNFKGKATLTVDKSSSTAYMELAGLTSEDSAIYYCARASYGSGYGPYYWYFDVWGAGTTVTVSS
VL: DIQMTQSPASLFASVGETVTITCRASEKIYSYLAWYFQKQGKSPQFLVYNANALAEGVPSRFSGSGSGTQFSLKIKSLQPEDFGTYYCQHHYGSPVTFGAGSKLELK
notes: as for B1
B6: 10-B9-D10-A12 (human IgG1 chimeric antibody) (antibody, V domains shown)
VH: B5 VH with Q1E, Q6E, E39L, Q43K, N63K, G85R
VL: B5 VL with K76N, S94T
notes: as for B1
B7: 8-C3-E3-F3 (human IgG1 chimeric antibody) (antibody, V domains shown)
VH: EVQLVESGGGLVQPGGSLKLSCAASGFTFSNYGLSWVRLTPDKRLEVVATIGSYGGNTYYPDSVKGRFTISRDNAKNTLYLQMSSLKSEDTAIYYCARDIYYGNSEAWFAYWGQGTLVTVSA
VL: DIVMTQAAFSNPVTLGTSASISCRSSKSLLHSNGITYLYWYLQKPGQSPQLLIYQMSNLASGVPDRFSSSGSETDFTLRISRVEAEDVGVYYCAQNLELPWTFGGGTKLEIK
notes: as for B1
B8: 20-C5-D7-D3 (human IgG1 chimeric antibody) (antibody, V domains shown)
VH: EVQLVESGGDLVKPGGSLKLSCAASGFTFRSYGMSWVRQTPDKRLEWVATISGGGNYTYYPDSVKGRFTISRDNAKNTLYLQMSSLKSEDTAMYYCARHEGLPLDYWGQGTTLTVSS
VL: DIQMTQSPASLSASVGETVTITCRASENIYSYLAWYQQKQGKSPQLLVYNAKTLAEGVPSRFSGSGSGTQFSLKINSLQPEDFGNFYCQHHYGTPTWTFGGGTKLEIK
notes: as for B1
B9: 10-G6-C4-B2_hVH2-VL1_PTM (antibody, V domains shown)
VH: EVQLVESGGGLVQPGGSLRLSCATSGFTLSDYYMSWVRQAPGKGLEWVSFMRNKANAYTTEYSASVRGRFTISRDTSKSTIYLQMNSLRAEDTAVYYCVRDREGRPFAYWGQGTLVTVSS
VL: DIVMTQSPDSLAVSLGERATINCKSSQSLLNAINQKNFLTWYQQKPGQPPKLLIYWASTRESGVPDRFSGSGSGTDFTLTISSLQAEDLAVYYCQNDYTYPLTFGQGTKLEIK
notes: humanized, PTM-optimized antibody from 10-G6-C4-B2
B10: 10-G6-C4-B2_hVH3-VL3_PTM (antibody, V domains shown)
VH: B9 VH with S49G, T80S, R89K, A90T
VL: DIQMTQSPSSLSASVGDRVTITCKSSQSLLNAINQKNFLTWYQQKPGKAPKLLIYWASTRESGVPSRFSGSGSGTDFTLTISSLQPEDLATYYCQNDYTYPLTFGQGTKLEIK
notes: as for B9
B11: 10-G6-C4-B2_hVH4-VL2_PTM (antibody, V domains shown)
VH: B9 VH with V12I, A40P
VL: DIVMTQSPLSLPVTPGEPASISCKSSQSLLNAINQKNFLTWYLQKPGQSPQLLIYWASTRESGVPDRFSGSGSGTDFTLKISRVEAEDLGVYYCQNDYTYPLTFGQGTKLEIK
notes: as for B9
B12: 10-G6-C4-B2_hVH5-VL1_PTM (antibody, V domains shown)
VH: B9 VH with G16R, A23T, S49G, T80I, R89K, A90T
VL: B9 VL
notes: as for B9
B13: 10-G6-C4-B2_hVH5-VL3_PTM (antibody, V domains shown)
VH: B9 VH with G16R, A23T, S49G, T80I, R89K, A90T
VL: B10 VL
notes: as for B9
B14: 10-G6-C4-B2_hVH4-VL1_PTM (antibody, V domains shown)
VH: B9 VH with V12I, A40P
VL: B9 VL
notes: as for B9

Key:
human CD276 protein [1] = molecular target: T1, human CD276 protein; assay: FACS on SKOV3 cells
Text: Sequences of 31 mouse antibodies from Table 5 were selected to generate and produce human IgG1 chimeric antibodies. The binding affinity of these antibodies and bench mark antibody, Enoblituzumab (see U.S. Pat. No. 8,802,091, MGA271, specifically with a construct designated as hBRCA84D-2) and MGC018 (an antibody-drug-conjugate, in which the mAb MGA017 (human IgG1) is conjugated via a cleavable linker to the prodrug seco-DUocarmycin hydroxyBenzamide Azaindole (DUBA), an alkylating agent that can damage DNA in both dividing and non-dividing cells, thereby causing cell death) with human patient derived ovarian cancer cell line, SKOV3, was determined by FACS analysis.
1. Digested cells using Trypsin (1×); Centrifuged the harvested cells at 300 g for 3 min and discarding the supernatant. […] 2. Washed the cells 2 times with FACS buffer by centrifuging at 300 g for 3 min and discarding the supernatant. [0445] 3. […] Kept the cells in dark for FACS analysis.

human CD276 protein [2] = molecular target: T1, human CD276 protein; assay: cell-based or functional assay
human CD276 protein [3] = molecular target: T1, human CD276 protein; assay: cell-based or functional assay; remark: listed apart in the source
human CD276 protein [4] = molecular target: T1, human CD276 protein; assay: cell-based or functional assay; remark: listed apart in the source
[5] = molecular target: T2, HUMAN B7H3 (Biacore analyte); assay: SPR, Biacore 8K, antibody captured, B7H3 as analyte, 1:1 binding
[6] = molecular target: T2, HUMAN B7H3 (Biacore analyte); assay: as above; remark: listed apart in the source

Row | Binder | EC50 (human CD276 protein [1]) | MFI (Max) (human CD276 protein [1]) | EC50 of antibody induced ADCC effect on SKOV3 (human CD276 protein [2]) | IC50 of indirect ADC cytotoxicity on SKOV3 (human CD276 protein [3]) | EC50 of antibody induced CDC effect (human CD276 protein [4]) | Top cytotoxicity (%), CDC (human CD276 protein [4]) | Kd [5] | koff [5] | kon [5] | Kd [6] | koff [6] | kon [6]
1 | B1 | 1.77 µg/mL | 3080 | 0.876 µg/mL | 0.021 nM |  |  |  |  |  |  |  | 
2 | B2 | 0.385 µg/mL | 2540 |  | 0.013 nM | 1.67 nM | 93.3% | 0.459 nM | 0.000408 s⁻¹ | 889000 M⁻¹ s⁻¹ |  |  | 
3 | B3 | 1.31 µg/mL | 3180 | 0.0419 µg/mL |  | 1.43 nM | 93.6% | 1.16 nM | 0.000214 s⁻¹ | 185000 M⁻¹ s⁻¹ |  |  | 
4 | B4 | 0.523 µg/mL | 5540 | 0.0179 µg/mL | 0.016 nM |  |  |  |  |  |  |  | 
5 | B5 | 0.791 µg/mL | 3110 | 0.263 µg/mL | 0.007 nM | 1.92 nM | 85.1% | 0.555 nM | 0.000282 s⁻¹ | 508000 M⁻¹ s⁻¹ |  |  | 
6 | B6 | 2.08 µg/mL | 3880 | 0.259 µg/mL | 0.021 nM |  |  | 0.752 nM | 0.000282 s⁻¹ | 375000 M⁻¹ s⁻¹ |  |  | 
7 | B7 | 0.643 µg/mL | 2880 | 0.111 µg/mL | 0.012 nM |  |  | 0.444 nM | 0.00044 s⁻¹ | 990000 M⁻¹ s⁻¹ |  |  | 
8 | B8 | 0.941 µg/mL | 2310 | 0.069 µg/mL | 0.007 nM |  |  | 0.644 nM | 0.000416 s⁻¹ | 645000 M⁻¹ s⁻¹ |  |  | 
9 | B9 |  |  |  |  |  |  |  |  |  | 0.851 nM | 7.26e-05 s⁻¹ | 85300 M⁻¹ s⁻¹
10 | B10 |  |  |  |  |  |  |  |  |  | 0.0087 nM | 1.02e-06 s⁻¹ | 118000 M⁻¹ s⁻¹
11 | B11 |  |  |  |  |  |  |  |  |  | 1.35 nM | 7.12e-05 s⁻¹ | 52700 M⁻¹ s⁻¹
12 | B12 |  |  |  |  |  |  |  |  |  | 0.0929 nM | 1.37e-05 s⁻¹ | 147000 M⁻¹ s⁻¹
13 | B13 |  |  |  |  |  |  |  |  |  | 0.00692 nM | 1.01e-06 s⁻¹ | 146000 M⁻¹ s⁻¹
14 | B14 |  |  |  |  |  |  |  |  |  | 1.73 nM | 0.000155 s⁻¹ | 89600 M⁻¹ s⁻¹
